Patent US20100015170A1

Experiments:
[1] = molecular target: human Toll-like receptor 5 (human) (UniProt O60602); experiment: cell-based or functional assay
[2] = molecular target: mouse Toll-like receptor 5 (mouse) (UniProt Q9JLF7); experiment: cell-based or functional assay
Chain of UniProt Q9JLF7 (Q9JLF7 27-859): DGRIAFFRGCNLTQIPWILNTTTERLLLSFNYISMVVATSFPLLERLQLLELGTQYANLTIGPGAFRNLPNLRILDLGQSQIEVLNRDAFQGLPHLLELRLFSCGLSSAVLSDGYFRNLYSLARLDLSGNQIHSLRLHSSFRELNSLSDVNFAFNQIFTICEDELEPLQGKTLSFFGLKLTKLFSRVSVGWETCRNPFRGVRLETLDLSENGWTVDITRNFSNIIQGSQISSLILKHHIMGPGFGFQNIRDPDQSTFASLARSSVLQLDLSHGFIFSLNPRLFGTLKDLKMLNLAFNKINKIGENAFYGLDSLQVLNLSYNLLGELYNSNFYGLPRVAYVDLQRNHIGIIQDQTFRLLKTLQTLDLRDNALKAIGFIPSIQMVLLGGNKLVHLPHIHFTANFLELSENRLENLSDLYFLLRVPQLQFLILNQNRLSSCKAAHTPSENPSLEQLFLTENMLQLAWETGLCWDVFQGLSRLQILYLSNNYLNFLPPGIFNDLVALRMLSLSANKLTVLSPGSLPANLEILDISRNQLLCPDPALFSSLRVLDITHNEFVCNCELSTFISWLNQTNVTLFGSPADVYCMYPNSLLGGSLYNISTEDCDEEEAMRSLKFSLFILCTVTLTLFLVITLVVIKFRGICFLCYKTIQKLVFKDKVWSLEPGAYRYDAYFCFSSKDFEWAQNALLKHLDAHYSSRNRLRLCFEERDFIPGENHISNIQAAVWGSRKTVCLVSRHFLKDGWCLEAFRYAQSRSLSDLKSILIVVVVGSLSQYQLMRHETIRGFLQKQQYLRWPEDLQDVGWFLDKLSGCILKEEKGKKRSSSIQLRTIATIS

Chain of UniProt O60602 (O60602 21-858): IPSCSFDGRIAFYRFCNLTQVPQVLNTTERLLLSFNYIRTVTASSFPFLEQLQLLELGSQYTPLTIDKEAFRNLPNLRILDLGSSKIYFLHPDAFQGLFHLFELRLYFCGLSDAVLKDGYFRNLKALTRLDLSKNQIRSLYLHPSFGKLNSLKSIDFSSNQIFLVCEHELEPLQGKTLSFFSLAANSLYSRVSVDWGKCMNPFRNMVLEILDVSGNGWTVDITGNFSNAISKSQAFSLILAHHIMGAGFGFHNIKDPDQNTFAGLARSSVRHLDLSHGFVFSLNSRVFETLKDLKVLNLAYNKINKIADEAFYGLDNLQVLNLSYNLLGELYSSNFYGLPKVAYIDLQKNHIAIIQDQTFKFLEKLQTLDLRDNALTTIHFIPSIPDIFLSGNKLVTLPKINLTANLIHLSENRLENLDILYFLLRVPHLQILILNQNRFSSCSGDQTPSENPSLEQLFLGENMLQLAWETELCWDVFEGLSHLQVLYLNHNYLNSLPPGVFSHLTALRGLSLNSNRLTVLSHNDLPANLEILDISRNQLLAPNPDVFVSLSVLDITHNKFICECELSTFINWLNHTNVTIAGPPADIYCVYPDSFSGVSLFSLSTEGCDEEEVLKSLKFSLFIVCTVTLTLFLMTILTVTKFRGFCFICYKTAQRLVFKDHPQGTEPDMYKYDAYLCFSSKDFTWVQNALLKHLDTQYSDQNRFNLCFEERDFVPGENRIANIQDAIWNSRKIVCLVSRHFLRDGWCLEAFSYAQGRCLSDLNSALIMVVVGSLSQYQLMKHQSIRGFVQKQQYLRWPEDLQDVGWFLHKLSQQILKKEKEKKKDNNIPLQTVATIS

| Substance | TLR5-mediated NF-κB activation (luciferase, HEK293 cells with human TLR5) (fold lower than FliC WT) [1] | TLR5-mediated NF-κB activation (luciferase, HEK293 cells with mouse TLR5) (fold lower than FliC WT) [2] |
| --- | --- | --- |
| recombinant mutant flagellin FliC R90A (from UniProt P72151 2-488) (ligand) | > 100 | > 100 |
| recombinant mutant flagellin FliC L88A (from UniProt P72151 2-488) (ligand) | > 100 | > 100 |
